Experimental data reported in patent US20230312742A1 (Y MABS THERAPEUTICS, published 2023).

B1: 8DC-3 (anti-CD38 scFv-(G4S)4-huC825 anti DOTA scFv-linker-P53-linker-His tag) (bispecific antibody)
chain: QVQLQESGPGLVKPSETLSLTCTVSGFSLTSYGVHWVRQPPGKGLEWIGVMWRGGSTDYNAAFKSRVTISKDNSKNQVSLKLSSVTAADTAVYYCAKSMITTGFVMDSWGQGTLVTVSSGGGGSGGGGSGGGGSGGGGSGGGGSGGGGSDIQLTQSPSSLSASVGDRVTITCKASEDIYNRLTWYQQKPGKAPKLLISGATSLETGVPSRFSGSGSGKDYTFTISSLQPEDFATYYCQQYWSNPYTFGQGTKLEIKGGGGSGGGGSGGGGSGGGGSHVQLVESGGGLVQPGGSLRLSCAASGFSLTDYGVHWVRQAPGKGLEWLGVIWSGGGTAYNTALISRFTISRDNSKNTLYLQMNSLRAEDTAVYYCARRGSYPYNYFDAWGCGTLVTVSSGGGGSGGGGSGGGGSGGGGSGGGGSGGGGSQAVVTQEPSLTVSPGGTVTLTCGSSTGAVTASNYANWVQQKPGQCPRGLIGGHNNRPPGVPARFSGSLLGGKAALTLLGAQPEDEAEYYCALWYSDHWVIGGGTKLTVLGTPLGDTTHTSGKPLDGEYFTLQIRGRERFEMFRELNEALELKDAQAGKEPGGSGGAPHHHHHH
notes: SADA construct with VL5 and VH8
B2: 8DC-2 (anti-CD38 scFv-(G4S)4-huC825 anti DOTA scFv-linker-P53-linker-His tag) (bispecific antibody)
chain: QVQLQESGPGLVRPSQTLSLTCTVSGFTFTSYGVHWVRQPPGRGLEWIGVMWRGGSTDYNAAFMSRVTMLVDTSKNQFSLRLSSVTAADTAVYYCAKSMITTGFVMDSWGQGSLVTVSSGGGGSGGGGSGGGGSGGGGSGGGGSGGGGSDIQMTQSPSSLSASVGDRVTITCKASEDIYNRLTWYQQKPGKAPKLLISGATSLETGVPSRFSGSGSGTDFTFTISSLQPEDIATYYCQQYWSNPYTFGQGTKVEIKGGGGSGGGGSGGGGSGGGGSHVQLVESGGGLVQPGGSLRLSCAASGFSLTDYGVHWVRQAPGKGLEWLGVIWSGGGTAYNTALISRFTISRDNSKNTLYLQMNSLRAEDTAVYYCARRGSYPYNYFDAWGCGTLVTVSSGGGGSGGGGSGGGGSGGGGSGGGGSGGGGSQAVVTQEPSLTVSPGGTVTLTCGSSTGAVTASNYANWVQQKPGQCPRGLIGGHNNRPPGVPARFSGSLLGGKAALTLLGAQPEDEAEYYCALWYSDHWVIGGGTKLTVLGTPLGDTTHTSGKPLDGEYFTLQIRGRERFEMFRELNEALELKDAQAGKEPGGSGGAPHHHHHH
notes: SADA construct with VL7 and VH10 (published huAT13/5 of Ellis et al.)
B3: 8DC-1 (anti-CD38 scFv-(G4S)4-huC825 anti DOTA scFv-linker-P53-linker-His tag) (bispecific antibody)
chain: QVQLKQSGPGLVHPSQSLSITCTVSGFSLTSYGVHWVRQSPGKGLEWLGVMWRGGSTDYNAAFMSRLNITKDNSKRQVFFKMNSLQADDTAIYYCAKSMITTGFVMDSWGQGTSVTVSSGGGGSGGGGSGGGGSGGGGSGGGGSGGGGSDIQLTQSPSSFSVSLGDRVTITCKASEDIYNRLTWYQQKPGNAPRLLISGATSLETGVPSRFSGSGSGKDYTLSITSLQTEDVATYYCQQYWSNPYTFGGGTKLEIRGGGGSGGGGSGGGGSGGGGSHVQLVESGGGLVQPGGSLRLSCAASGFSLTDYGVHWVRQAPGKGLEWLGVIWSGGGTAYNTALISRFTISRDNSKNTLYLQMNSLRAEDTAVYYCARRGSYPYNYFDAWGCGTLVTVSSGGGGSGGGGSGGGGSGGGGSGGGGSGGGGSQAVVTQEPSLTVSPGGTVTLTCGSSTGAVTASNYANWVQQKPGQCPRGLIGGHNNRPPGVPARFSGSLLGGKAALTLLGAQPEDEAEYYCALWYSDHWVIGGGTKLTVLGTPLGDTTHTSGKPLDGEYFTLQIRGRERFEMFRELNEALELKDAQAGKEPGGSGGAPHHHHHH
notes: SADA construct with the murine AT13/5 VH and VL; also called the murine antibody

Columns and labels:
[1] = target: T1, CD38 on CD38(+) cancer cells (RPMI8226, Raji, Daudi) (UniProt P28907 1-300, limits assumed); test: flow cytometry on Raji cells, detection with an anti-his tag antibody
T1 construct: whole, on cells; Endogenous CD38 on tumour cell lines; also called CD38(+) tumor cells; CD38(+) Raji cells

[2] = target: T2, human CD38 antigen (recombinant human CD38 protein) (human, UniProt P28907 43-300, limits assumed); test: SPR, antibody captured on Protein-L chip, human CD38 in solution; humanized 8DC3
[3] = target: T2, human CD38 antigen (recombinant human …); test: SPR, construct captured on immobilised protein-L (HC30M chip), human CD38 antigen flown over
[4] = target: T2, human CD38 antigen (recombinant human …); test: SPR, antibody captured on Protein-L chip, human CD38 in solution
[5] = target: T2, human CD38 antigen (recombinant human …); test: SPR, antibody captured on Protein-L chip, human CD38 in solution; murine antibody, not named
[6] = target: T1, CD38 on CD38(+) cancer cells (RPMI8226, …); test: flow cytometry on RPMI 8226 cells, detection with an anti-his tag antibody

| Binder | EC50 (read off the curve) [1] [µg/mL] | Kd [2] [nM] | koff [3] [s⁻¹] | kon [3] [M⁻¹ s⁻¹] | Kd [4] [nM] | Kd [5] [nM] | EC50 (read off the curve) [6] [µg/mL] |
| --- | --- | --- | --- | --- | --- | --- | --- |
| B1 | ~0.06 | 31 | 0.00085 | 27000 |  |  |  |
| B2 |  |  | 0.001 | 6400 | 163 |  |  |
| B3 | ~0.05 |  | 0.0012 | 160000 |  | 7.4 | ~0.06 |
